Drawing on publication PMC6166933 (PLoS ONE, 2018), this text covers Kd for one molecule.

The assay concerns the target T1, Recombinant human RO60 (human, UniProt P10155 1-538).
T1 construct: Recombinant human RO60 (rRO60), Abcam ab73786; see the vendor's data sheet for ab73786; also called rRO60; source: bought: Abcam (ab73786)
In words: BLI; BLItz system; antibody against RO60 captured on a Protein-A biosensor, rRO60 bound to it, rDDX6 bound for 2 min and dissociation for 2 min; 25°C; 10 mM Tris-HCl (pH 8.0), 150 mM NaCl; 193 nM rDDX6 with 917 nM or 1833 nM rRO60. The note with it: both partners purified. In general terms: Biolayer interferometry detects binding as a change in optical thickness at a sensor tip.

“And” between values parts separate entries of the source, which are not always exact repeats. Equal entries are not always repeated.

T1 sequence (P10155 whole entry): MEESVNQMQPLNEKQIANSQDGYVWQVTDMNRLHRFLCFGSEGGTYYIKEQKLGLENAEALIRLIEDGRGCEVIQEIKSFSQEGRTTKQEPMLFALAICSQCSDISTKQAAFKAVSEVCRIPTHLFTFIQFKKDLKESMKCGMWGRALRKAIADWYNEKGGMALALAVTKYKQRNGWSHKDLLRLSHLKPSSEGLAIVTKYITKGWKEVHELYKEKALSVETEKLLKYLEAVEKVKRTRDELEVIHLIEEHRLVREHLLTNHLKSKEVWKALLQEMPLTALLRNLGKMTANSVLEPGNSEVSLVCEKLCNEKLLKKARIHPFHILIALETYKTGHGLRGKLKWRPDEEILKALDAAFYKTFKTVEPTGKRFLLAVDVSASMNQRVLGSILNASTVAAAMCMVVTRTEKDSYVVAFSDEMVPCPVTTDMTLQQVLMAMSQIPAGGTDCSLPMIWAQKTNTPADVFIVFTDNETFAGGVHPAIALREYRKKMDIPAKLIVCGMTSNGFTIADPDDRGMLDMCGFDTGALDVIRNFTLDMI

B1: Recombinant GST-tagged human DDX6 (natural protein, UniProt P26196 1-483, looked up)
chain: MSTARTENPVIMGLSSQNGQLRGPVKPTGGPGGGGTQTQQQMNQLKNTNTINNGTQQQAQSMTTTIKPGDDWKKTLKLPPKDLRIKTSDVTSTKGNEFEDYCLKRELLMGIFEMGWEKPSPIQEESIPIALSGRDILARAKNGTGKSGAYLIPLLERLDLKKDNIQAMVIVPTRELALQVSQICIQVSKHMGGAKVMATTGGTNLRDDIMRLDDTVHVVIATPGRILDLIKKGVAKVDHVQMIVLDEADKLLSQDFVQIMEDIILTLPKNRQILLYSATFPLSVQKFMNSHLQKPYEINLMEELTLKGVTQYYAYVTERQKVHCLNTLFSRLQINQSIIFCNSSQRVELLAKKISQLGYSCFYIHAKMRQEHRNRVFHDFRNGLCRNLVCTDLFTRGIDIQAVNVVINFDFPKLAETYLHRIGRSGRFGHLGLAINLITYDDRFNLKSIEEQLGTEIKPIPSNIDKSLYVAEYHSEPVEDEKP
notes: Recombinant GST-tagged human DDX6 (rDDX6), Abcam ab114574; it is not clear that this means full length; The printed 79 kDa with GST would fit the whole protein; also called rDDX6; source: bought: Abcam (ab114574)
Broadly, the Kd is the equilibrium constant for the complex coming apart. As for B1, the dissociation constant Kd is 620 nM and 950 nM.
